In the nanobody polyreactivity screen of Harvey et al. (2022):

assay: yeast display, Sf9 membrane polyspecificity reagent, FACS + sequencing; frameworks hold sequencing errors
How it was run: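 Using colony PCR, genes from sorted yeast display clones were amplified, then sequenced on MiSeq at 2 × 250 and filtered by CDR length. The clones had been stained with 10% biotinylated, detergent-solubilized Sf9 membrane reagent for 1 hour at 4 °C and sorted by FACS into low and high (top ~1%) gates on anti-HA and streptavidin fluorescence. Polyreactivity labels come from the gate of origin.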

Sequence | polyreactivity (PSR sort gate)
QVQLVESGGGLVQAGGSLRLSCAASGSIFYSYAMGWYRQAPGKERELVAGIRSDGNTNYADSVKGRFTISRDNAKNTVYLQMNSLKPEDTAVYYCARLRYFLLNGSLRYGTSDRDYWGQGTQVTVSS | high polyreactivity
QVQLVESGGGLVQAGGSLRLSCAAAGNTIRVNAMGWYRHAHGKERELVAAISFSGGRTYYADSVKGRFTISRDNAKNTVYLQMNSLKPEDTAVYYCAALRRYPRPNIYGYWGQGTQVTVSS | low polyreactivity
HVQLVESGGGIVQAGGSLRLSCAASGLIFSYYAMGWYRQAPGKERELVAAINSGGSTYYADSVKGRFTISRDNAKNTVYLQMNSLKPEDSAVYYCAAHLWYHGHLFDYWGQGTQVTVSS | high polyreactivity
QVQLVESGGGLVQAGVSLRLSCAASGSIFRYYAMGWYRQAPGKERELVAAITVGGSTYYADSVKGRFTISRDNAKNTVYLQMNSLKPEDTAVYYCAADGDKRTKGYDYWGQGTQVTVSS | high polyreactivity
QVQLVESGGGLVQAGGSLRLSCAASGRTFLYYAMGWYRQAPGKERELVAVISRDGGSTYYADSVKGRFTISRDNAKNTVYLQMNSLKPEDTAVYYCAKRYGWASGYWNSNYGYLYDYWGQGTQVTVSS | high polyreactivity
QVQLVESGGCLVQAGGSLRLSSAASGSTFRVNAMGWYRQAPGKERELVAAISFSGGSTYYADSVKGRFTISRDNAKNTVYLQMNSLKPEDTAVYYCNVDIYLGGDYYYSRYTWGLDYWGQGTQVTVSS | low polyreactivity
QVQLVESGGGLVQAGGSLRLSSAASGSIFLFYAMGWYRQAPGKERELVATITTGAGSTYYADSVKGRFTISRDNAKNTVFLQMNSLKPEDTAVYYCAATVSYDFGYVAVSYDYWGQGTQVTVSS | low polyreactivity
QVQLVESWGGLVQAGGSLRLSCGASGYSFQPYTMGWYRQAPGKERELVAAISKSGTRTYYADSVKGRFTISRDNAKNTVYLQMNSLKPEDTAVYYCAARYTGNLFDYWGQGTQVTVSS | high polyreactivity
QVQLVESGGGLVQAGGSLRLSCDASGRIFRGYAMGWYRKAPGKERELVAAISGRGGRTNYADSVKGRFTISRDNAKNTVYLQMNSLKTEDTAVYYCAVKRLSYPYVGHYYFWGQGTQVTVSS | high polyreactivity
QVQLVESGGGLVQAGGSLRLSCAASGFSFTSNAMAWYRQAPGKERELVAAITTRGGSTYYADSVKGRFTLSRDNAKNTVDLPMNSLKPEDTSVYYCAARYSYWGLLRYDYWGQGTQVTVSS | high polyreactivity
QVQLVESGGGLVQAGGSLRLSCAASGSIFSTYVMGWYRQAPGKERELVAAISRRGGSTYYADSVKGRFTISRDNAKNTVYLQMNSLKPEDTAVYYCAARGQFRYSFGDYSWGQGTQVTVSS | high polyreactivity
QVQLVESGGGLVQAGGSLRLSSAASGYTFGFYGLGWYRQAPGKERELVAAISRSGGGSTYYADSVKGRFTISRDNAKNSVYLQMNSLKPEDSAVYYCNRDFDDEMWGQGTQVTVSS | low polyreactivity
QVQLVESGGGLVQAGGSLRLSCAASGIIFPGYVMGWYRQAPGKERELVAAISYSGGRTYYADSVKGRFTISRDNAKNTVYLQMNSLIPEDTAVYYCAARKSYFTSTDRYYGYYYHQSNYLGQGTQVTVSS | high polyreactivity
QVQLVDSGGGLVQAGGSLRLSCAASGRIFGVNAMGWYRQAPGKERELVAAINFSGGGTYYADSVKGRFTISRDNAKNTVYLQMNSLKPEDTAVYYCAADGPDYKWYYELDYWGQGTQVTVSS | low polyreactivity
QVQLVESGGGLVQAGGSLRLSSAASGSIFASYAMGWYRQAPGKERELVAAISRSGGSTYYADSVKGRFTISRDNAKNTVYLQMNSLIPEDTAVYYCATGKIREDDYWGQGTQVTVSS | high polyreactivity
QGQLVESGGGLVQAGGSLRLSCAASGSTFNSYAMGWYRQAPGKERELVAAISRGGASTYYADSVKGSFTISRDNAKNTVYLQMNSLKPEDTAVYYCATVYYHRFDYWGQGTQVTVSS | high polyreactivity
QVQLVESGGGLVQAGGSLRLSCAASGITFVYYAMGWYRPAPGKERELVAAISWNGGSTYYADSVKGRFTISRDNAKNTVYLQMNSLKPEDSAVYYCNADSDPWYGHFSYYYYDMGYWGQGTQVTVSS | low polyreactivity
QVQLVESGGGLVQAGGSLRLSCAASGSIFYRYAKGWYRQPPGKETELVAAIRTTGGRTYYADSVKGRFTISRDNAKNTVYLQMNSLKPADTAVYYCNALQAGVSYDYWGQGTQVTVSS | high polyreactivity
QVQLVESGGGLVQAGGSLRLSCAASGSILGRYAMGWYRQAPGKERELVAAITNRGGSTYYADSVNGRFTISRDNAKNTVYLQMNSLKPEDTAVYYCAAPYSAKELYYRMDYWGQGTQVTVSS | high polyreactivity
QVQLVESGGGLVQAGGSLRLSCAASGRTFGYYTMGWYRQAPGKERELVAAITWSGSTYYADSVKGRFTISRDNAKNTVYLQMNSLKPEDTAVYYCAVEIYYFVYGISYDYWGQGTQVTVSS | high polyreactivity
QVQLVESGGGLVQAGGSLRLSCAASGSIFGFYAMGWYRQAPGKERELVAGISYGDSSTYYADSVKGRFTISRDNAKNTVYLQMNSLKPEDTAVYYCAAGHRQKYNWGRYDYWGQGTQVTVSS | low polyreactivity
HVQLVESGGGLVQAGGSLRLSCAASGFIIADNAMGWDRQAPGKERELVAAISSSGGSTYYADSVKARFTISRDNAKNTVYLQMNSLKPVDTAVYYCAARTYHPRYVRPTFYYWGQGTQVTVSS | low polyreactivity
QVQHVESGGGLVQAGGSLRLSCAASGSIINNYAMGWYRQPPGKERELVADSTYYADSVKGRFTISRDNAKNTVYLQMNSLKPEVTAVYYCAPDDGGGDPEFYWGQGSQVTVSS | high polyreactivity
QVQLVESGGGLVQAGGSLRLSCAASGSTFRSNAMGWYRQAPGKERELVASITSRGGSTYYADSVKGRFTISRDNAKNTVYLQMNSLKPEDTAVYYCATARSYLTYSYHYDYWGQGTQVTVSS | low polyreactivity
QVQLVESGGGLVQAGGSLRLSCAASGSIFYNYAMGWYRQAPGKERELVAAIKRSGGITFYADSVKGRFTISRDNAKNTVYLQMNSLKPEVTAVYYCAADRSFGHHFWYTGKRYDYWGQGTKVTVSS | low polyreactivity
QLQLVESGGGLVQAGGSLRLSCAASGSTSVTNAMGWYRQAPGKEREFVATINYSGTSTYYADSVKGRFTISRDNAKNTVYLQMNSLKPEDTAVYYCNAHDFGFYRFSLPGYDYWGQGTQVTVSS | low polyreactivity
QVQLVESGGGLVQAGGSLRLSCAASGFTFSWYVMGWYRQAPGKERELVATITNRGGSTYYADSVKGRFTISRDNAKNTVYLQMNSLKPEDTAVYYCAARNYGKYRTNDYWGQGTQVTVSS | high polyreactivity
QVQLVESGGGLVQAGGSLRLSCAASGFTFTYNTMGWYRQAPGKERELVAAISALGTSTYYADSVKGRFTISRDNAKNTVYLQMNSLKPEDTEVYYCAAAYRIGSGYWGQGTQVTVSS | high polyreactivity
QVQIVESGGGLVQAGGSLRLSCAASGRIFVYNAMGWYRQAPGKERELVAAISSTGSTNYADSVKGRFTISRDNAKNTVYLQMNSLKPEDTAVYYCAAVYYFYGFSGYYGQYDYWGQGSQVTVSS | low polyreactivity
QVQLVESGGGLVQAGGSLRLSCAASGRTFKYNAMGWYRQAPGKERELVAAITRSGSTYYADSVKGRFTISRDNAKNTVYLQMNSLKPEDTAVYYCNARIVNYGSYYYWGQGTQVTVSS | high polyreactivity
